B1: OR4K15 (parent)
chain: GUUAACGGUCAUAGGCCAUGGAAACUAGGAGCACCAUUUCGCUGCCAGUGAAGAAAUGAACAAAGAAAAUCUGGGCCAGGCAGGCAUCAAAAGAAAUAGUCUUGCGCUCAACCAGAAAGUCUGUAAUCAUUUUAAGGGUA

Variants of: B1
Assay: self-cleavage, relative activity (ratio to wild type); higher = more cleavage; in vitro, sequencing; the parent is a self-cleaving ribozyme

| Variant | self-cleavage |
| --- | --- |
| GUUAACGGUCAUAGGCCAUGGAAACUAGGAGCACCAUUUCGCUGCCAGUGAAGAAAUGAAUAAAGAAAAUCUGGGCCAGGCAGGCGUCAAAAGAAAUAGUCUUGCGCUCAACCAGAAAGUCUGUAAUCAUUUUAAGGGUA | 1.72 |
| GUUAACGGUCAUAGGCCAUGGAAACUAGGAGCACCAUUUCGCUGCCAGUGAAGAAAUGAUCAAAGAAAAUCUGGGCCAGGCAGGCAUCAAAAGAAAUAGUCUUGCGCUCAACCAAAAAGUCUGUAAUCAUUUUAAGGGUA | 0.29 |
| GUUAACGGUCAUAGGCCAUGGAAACUAGGAGCACCAUUUCGCUGCCAGUGAAGAAAUGAUCAAAGAAAAUCUGGGCCAGGCAGGCAUCAAAAGGAAUAGUCUUGCGCUCAACCAGAAAGUCUGUAAUCAUUUUAAGGGUA | 1.5 |
| GUUAACGGUCAUAGGCCAUGGAAACUAGGAGCACCAUUUCGCUGCCAGUGAAGAAAUGAUCAAAGAAAAUCUGGGCCAGGCGGGCAUCAAAAGAAAUAGUCUUGCGCUCAACCAGAAAGUCUGUAAUCAUUUUAAGGGUA | 0.66 |
| GUUAACGGUCAUAGGCCAUGGAAACUAGGAGCACCAUUUCGCUGCCAGUGAAGAAAUGAUCAAAGAAAAUCUGGGCCAGGCUGGCAUCAAAAGAAAUAGUCUUGCGCUCAACCAGAAAGUCUGUAAUCAUUUUAAGGGUA | 0.45 |
| GUUAACGGUCAUAGGCCAUGGAAACUAGGAGCACCAUUUCGCUGCCAGUGAAGAAAUGAUCAAAGAAAAUCUGGGCCAGGCAGGCAUCAAAAGAAAUAGUCUUGCGCUCAACCAGAAAGUCUGUAAUCAUUUUAAGGAUA | 1.37 |
| GUUAACGGUCAUAGGCCAUGGAAACUAGGAGCACCAUUUCGCUGCCAGUGAAGAAAUGAUCAAAGAAAAUCUGGGCCAGGCAGGCAUCAAAAGAAAUAGUCUUGCGCUCAGCCAGAAAGUCUGUAAUCAUUUUAAGGGUA | 0.05 |
| GUUAACGGUCAUAGGCCAUGGAAACUAGGAGCACCAUUUCGCUGCCAGUGAAGAAAUGAUCAAAGAAAAUCUGGGCCAGGCAGGCAUCAAAAGAAAUAGUCUUGCGCUCAACCAGAAAGUCUGUAAUCAUUUUAAGGGUU | 1.59 |
| GUUAACGGUCAUAGGCCAUGGAAACUAGGAGCACCAUUUCGCUGCCAGUGAAGAAAUGAUCAAAGAAAAUCUGGGCCAGGCAGGCAUCAAAAGAAAUAGUCUUGCGCUCAACCAGAAAGUCUGUAAUCAUUUUAAGGGUG | 2.47 |
| GUUAACGGUCAUAGGCCAUGGAAACUAGGAGCACCAUUUCGCUGCCAGUGAAGAAAUGAUCAAAGAAAAUCUGGGCCAGGCAGGCAUCAAAAGAAAUAGUCUUGCGCUCAACCAGAAAGUCUGUAACCAUUUUAAGGGUA | 0.92 |
| GUUAACGGUCAUAGGCCAUGGAAACUAGGAGCACCAUUUCGCUGCCAGUGAAGAAAUGAUCAAAGAAAAUCUGGGCCAGGCAGGCAUCAAAAGAAAUAGUCUUGCGCUCAACCAGAAAGUCUGUAAACAUUUUAAGGGUA | 2.36 |
| GUUAACGGUCAUAGGCCAUGGAAACUAGGAGCACCAUUUCGCUGCCAGUGAAGAAAUGAUCAAAGAAAAUCUGGGCCAGGCAGGCAUCAAAAGAAAUAGUCUUGCGCUCAACCAGAAAGUCUGUAAUCAUCUUAAGGGUA | 0.75 |
| GUUAACGGUCAUAGGCCAUGGAAACUAGGAGCACCAUUUCGCUGCCAGUGAAGAAAUGAUCAAAGAAAAUCUGGGCCAGGCAGGCAUCAAAAGAAAUAGUCUUGCGCUCAACCAGAAAGUCUGUAAUCAUUUCAAGGGUA | 2.17 |
| GUUAACGGUCAUAGGCCAUGGAAACUAGGAGCACCAUUUCGCUGCCAGUGAAGAAAUGAAUGAAGAAAAUCUGGGCCAGGCAGGCAUCAAAAGAAAUAGUCUUGCGCUCAACCAGAAAGUCUGUAAUCAUUUUAAGGGUA | 1.65 |
| GUUAACGGUCAUAGGCCAUGGAAACUAGGAGCACCAUUUCGCUGCCAGUGAAGAAAUGAUCAAAGAAAAUCUGGGCCAGGCAGGCAUCAAAAGAAAUAGUCUUGCGCUCAACCAGAAAGUCAGUAAUCAUUUUAAGGGUA | 2.08 |
| GUUAACGGUCAUAGGCCAUGGAAACUAGGAGCACCAUUUCGCUGCCAGUGAAGAAAUGAAAAAAGAAAAUCUGGGCCAGGCAGGCAUCAACAGAAAUAGUCUUGCGCUCAACCAGAAAGUCUGUAAUCAUUUUAAGGGUA | 2.41 |
| GUUAACGGUCAUAGGCCAUGGAAACUAGGAGCACCAUUUCGCUGCCAGUGAAGAAAUGAUCAAAGAAAAUCUGGGCCAGGCAGGCAUCAAAAGAAAUAGUCUUGCGCUCAACCAGAUAGUCUGUAAUCAUUUUAAGGGUA | 1.11 |
| GUUAACGGUCAUAGGCCAUGGAAACUAGGAGCACCAUUUCGCUGCCAGUGAAGAAAUGAAUAAAGAAAAUCUGGGCCAGGCAGGCAUCAAAAGAAAUAGUCUUGCGCUCGACCAGAAAGUCUGUAAUCAUUUUAAGGGUA | 0.11 |
| GUUAACGGUCAUAGGCCAUGGAAACUAGGAGCACCAUUUCGCUGCCAGUGAAGAAAUGAUCAAAGAAAAUCUGGGCCAGGCAGGCAUCAAAAGAAAUAGUCUUGCGCUCAACCGGAAAGUCUGUAAUCAUUUUAAGGGUA | 0.58 |
| GUUAACGGUCAUAGGCCAUGGAAACUAGGAGCACCAUUUCGCUGCCAGUGAAGAAAUGAUCAAAGAAAAUCUGGGCCAGGCAGGCAUCAGAAGAAAUAGUCUUGCGCUCAACCAGAAAGUCUGUAAUCAUUUUAAGGGUA | 1.34 |
| GUUAACGGUCAUAGGCCAUGGAAACUAGGAGCACCAUUUCGCUGCCAGUGAAGAAAUGAUCAAAGAAAAUCUGGGCCAGGCAGGCAUCAAAAGAAAUAGUCUUGCGCUCGACCAGAAAGUCUGUAAUCAUUUUAAGGGUA | 0.24 |
